Measurements as given in patent publication US20250237641A1 (priority 2021, published 2025).

B1: IFN-γ: cytokine interferon gamma, used to induce APOL1 expression (protein, UniProt P01579 24-161, looked up)
Interferon gamma: QDPYVKEAENLKKYFNAGHSDVADNGTLFLGILKNWKEESDRKIMQSQIVSFYFKLFKNFKDDQSIQKSVETIKEDMNVKFFNSNKKKRDDFEKLTNYSVTDLNVQRKAIHELIQVMAELSPAAKTGKRKRSQMLFRG

Assays:
[1] = tested on: kidney organoids; details: short term, at the efficacious dose (2 μM)
[2] = tested on: SARS-CoV-2; experiment: Plaque assay of supernatants from SARS-CoV-2 infected kidney organoids treated with remdesivir; format: cell-based; details: 2 μM remdesivir immediately after infection with SARS-CoV-2 or SARS-CoV-2-mNG; vs untreated organoids
Method: Mean±SEM of three independent experiments. Paired t-test, **p<0.01.
To investigate the efficacy of remdesivir, kidney organoids were infected with SARS-CoV-2 or SARS-CoV-2-mNG, and then treated with a 2 μM dose of remdesivir immediately after infection (FIG. 5A).

[3] = tested on: COVID-19 patients; details: cited from earlier work
[4] = tested on: kidney organoid podocytes; experiment: Time-lapse imaging of GFP-PODXL kidney organoids under prolonged treatment (podocyte integrity, organoid size); format: cell-based, human
Method: It was determined whether podocytes are damaged by prolonged IFN-γ treatment. As shown at FIG. 24A, an example time course for prolonged IFN-γ treatment involves regular imaging of organoids during treatment of mature organoids with IFN-γ prior to fixation. […] Further, podocyte junctional tracks appear intact with 7d IFN-γ treatment (results from confocal immunofluorescence microscopy of control versus 7d IFN-γ treatment; markers: ZO-1, Synaptopodin, ZO-1+Synaptopodin, APOL1, and DAPI). Based on these observations, it was concluded that podocytes appear largely undamaged by prolonged IFN-γ treatment.

[5] = tested on: APOL1 expression; experiment: APOL1 expression in kidney organoids on agonist (IFN-γ) treatment, immunofluorescence; format: cell-based, human
Method: Experiments were performed to determine APOL1 localization in normal human kidney and stimulation in kidney organoids.

[6] = tested on: kidney organoid endothelial networks; experiment: Endothelial networks and tubular structures of kidney organoids under prolonged IFN-γ treatment; format: cell-based, human; details: prolonged (7d) treatment
Excerpt: As such, it was next determined whether JAK ½ inhibition prevents IFN-γ-induced loss of endothelial networks and disorganization of tubular structures. […] As a result, it was concluded that JAK ½ inhibition prevents IFN-γ-induced loss of endothelial networks and disorganization of tubular structures.

[7] = prolonged treatment of mature organoids

Molecule	safety in kidney cells [1]	reduced replicated virus in supernatants (plaque assay) [2]	tolerability ([3]; AKI and CKD patients)	risk of developing AKI ([3]; remdesivir-treated patients)	organoid size [4, 7]	APOL1 agonist screen result ([5]; 24-hour screen)	saturating dose for APOL1 expression ([5]; 24 hr, fluorescent intensity of APOL1 in organoids) [ng/mL]	APOL1 expression on titration ([5]; IFN-γ titration)	podocyte junctional tracks ([4]; 7d treatment, ZO-1, Synaptopodin staining)	loss of GFP-PODXL [4, 7]	effect on endothelial networks and tubular structures [6]
CCC(CC)COC(=O)[C@H](C)N[P@](=O)(OC[C@H]1O[C@@](C#N)(c2ccc3c(N)ncnn23)[C@H](O)[C@@H]1O)Oc1ccccc1 [remdesivir]	supports short term safety	71.4%±18%	tolerated well	increase chances of developing AKI	–	–	–	–	–	–	–
tunicamycin [reference compound]	–	–	–	–	shrink in size	–	–	–	–	–	–
B1	–	–	–	–	no significant change	strong agonist for APOL1 expression	100	dose-responsive activation of APOL1 expression	appear intact	does not result in enhanced loss of GFP-PODXL	pronounced loss of endothelial networks and tubular structures
